This series has as its target variola virus topoisomerase IB (vTopIB) (variola virus (smallpox), UniProt P32989 1-314). Kind of series: X-ray crystallography.

Sequence of variola virus topoisomerase IB (vTopIB) (P32989 whole entry): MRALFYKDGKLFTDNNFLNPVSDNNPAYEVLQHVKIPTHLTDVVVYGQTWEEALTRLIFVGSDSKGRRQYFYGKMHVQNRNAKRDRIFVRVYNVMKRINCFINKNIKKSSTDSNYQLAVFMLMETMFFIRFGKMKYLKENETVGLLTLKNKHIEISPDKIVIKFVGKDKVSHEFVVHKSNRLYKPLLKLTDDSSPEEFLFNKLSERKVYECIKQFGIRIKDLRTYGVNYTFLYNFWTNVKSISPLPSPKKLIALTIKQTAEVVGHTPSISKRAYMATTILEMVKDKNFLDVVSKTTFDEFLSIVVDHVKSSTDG

B1: nicked vTopIB-binding duplex (three oligonucleotides) (dsDNA)
DNA 1: GTGTCGCCCTT
DNA 2: ATTCC
DNA 3: CGGAATAAGGGCGACA
modifications: nick at the scissile phosphate (phosphodiester missing), filled by vanadate in the crystal
In the case of B1, the binding result is given as “binds”.

The values above are taken from PMC2822398.
